pKd: −log10 of the molar value. Read-outs that look alike come from different tables or passages of the source.
Experiments:
Experiment in all cases: BLI
[1] = target: HB125scFv-2 N54H
[2] = target: HB125scFv-2 D33H/E56H
[3] = target: HB125scFv-2 T32H
[4] = target: HB125scFv-2 Y242H
[5] = target: HB125scFv-2 D33H
[6] = target: HB125scFv-2 E56H
[7] = target: HB125scFv-2 N54H; remark: listed apart in the source
[8] = target: HB125scFv-2 D33H/E56H; remark: listed apart in the source
[9] = target: HB125scFv-2 T32H; remark: listed apart in the source
[10] = target: HB125scFv-2 Y242H; remark: listed apart in the source
[11] = target: HB125scFv-2 D33H; remark: listed apart in the source
[12] = target: HB125scFv-2 E56H; remark: listed apart in the source
[13] = target: HB125scFv-2 T32H; remark: listed apart in the source

Substance: human insulin (from UniProt P01308 90-110; P01308 25-54) (natural protein)
- pKd [1]: 6.69
- koff [1]: 0.00286 s⁻¹
- kon [1]: 15700 M⁻¹ s⁻¹
- pKd [2]: 6.37
- koff [2]: 0.0073 s⁻¹
- kon [2]: 19100 M⁻¹ s⁻¹
- pKd [3]: 6.84
- koff [3]: 0.00351 s⁻¹
- kon [3]: 42900 M⁻¹ s⁻¹
- percent change of wavelength shift, association 0.5 μM → 1 μM [3]: 57%
- percent change of wavelength shift, association 1 μM → 0.5 μM [3]: 23%
- percent change of wavelength shift, association 1 μM → 2 μM [3]: 49%
- percent change of wavelength shift, association 2 μM → 1 μM [3]: 21%
- percent change of wavelength shift, average association [3]: 37%
- percent change of wavelength shift, average dissociation [3]: -21%
- percent change of wavelength shift, dissociation 0.5 μM → 0 μM (first) [3]: -22%
- percent change of wavelength shift, dissociation 0.5 μM → 0 μM (second) [3]: -17%
- percent change of wavelength shift, dissociation 1 μM → 0 μM (first) [3]: -23%
- percent change of wavelength shift, dissociation 1 μM → 0 μM (second) [3]: -22%
- percent change of wavelength shift, dissociation 2 μM → 0 μM [3]: -20%
- pKd [4]: 5.83
- koff [4]: 0.012 s⁻¹
- kon [4]: 8040 M⁻¹ s⁻¹
- pKd [5]: 7.29
- koff [5]: 0.00154 s⁻¹
- kon [5]: 27800 M⁻¹ s⁻¹
- pKd [6]: 6.26
- koff [6]: 0.00577 s⁻¹
- kon [6]: 12700 M⁻¹ s⁻¹
- pKd [7]: 6.78
- koff [7]: 0.00341 s⁻¹
- kon [7]: 26000 M⁻¹ s⁻¹
- pKd [8]: 6.60
- koff [8]: 0.00557 s⁻¹
- kon [8]: 23700 M⁻¹ s⁻¹
- pKd [9]: 7.76
- koff [9]: 0.00166 s⁻¹
- kon [9]: 89700 M⁻¹ s⁻¹
- pKd [10]: 6.32
- koff [10]: 0.00854 s⁻¹
- kon [10]: 18800 M⁻¹ s⁻¹
- pKd [11]: 7.44
- koff [11]: 0.00176 s⁻¹
- kon [11]: 60500 M⁻¹ s⁻¹
- pKd [12]: 6.79
- koff [12]: 0.0058 s⁻¹
- kon [12]: 43400 M⁻¹ s⁻¹
- percent change of wavelength shift, association 0.5 μM → 1 μM [13]: 31%
- percent change of wavelength shift, association 1 μM → 0.5 μM [13]: 15%
- percent change of wavelength shift, association 1 μM → 2 μM [13]: 39%
- percent change of wavelength shift, association 2 μM → 1 μM [13]: 20%
- percent change of wavelength shift, average association [13]: 26%
- percent change of wavelength shift, average dissociation [13]: -17%
- percent change of wavelength shift, dissociation 0.5 μM → 0 μM (first) [13]: -18%
- percent change of wavelength shift, dissociation 0.5 μM → 0 μM (second) [13]: -11%
- percent change of wavelength shift, dissociation 1 μM → 0 μM (first) [13]: -15%
- percent change of wavelength shift, dissociation 1 μM → 0 μM (second) [13]: -18%
- percent change of wavelength shift, dissociation 2 μM → 0 μM [13]: -21%
